Test results from article doi:10.1101/2020.07.29.226720 (bioRxiv, 2020).

B1: AthPEPCK1 Δ101 truncated mutant (enzyme, Arabidopsis thaliana, UniProt Q9T074 102-671, looked up)
chain: ESGPKVVRGDPAEKKTDGSTTPAYAHGQHHSIFSPATGAVSDSSLKFTHVLYNLSPAELYEQAIKYEKGSFITSNGALATLSGAKTGRAPRDKRVVRDATTEDELWWGKGSPNIEMDEHTFMVNRERAVDYLNSLEKVFVNDQYLNWDPENRIKVRIVSARAYHSLFMHNMCIRPTQEELESFGTPDFTIYNAGQFPCNRYTHYMTSSTSVDLNLARREMVILGTQYAGEMKKGLFSVMHYLMPKRRILSLHSGCNMGKDGDVALFFGLSGTGKTTLSTDHNRYLIGDDEHCWTETGVSNIEGGCYAKCVDLSREKEPDIWNAIKFGTVLENVVFDEHTREVDYSDKSVTENTRAAYPIEFIPNAKIPCVGPHPTNVILLACDAFGVLPPVSKLNLAQTMYHFISGYTALVAGTEDGIKEPTATFSACFGAAFIMLHPTKYAAMLAEKMKSQGATGWLVNTGWSGGSYGVGNRIKLAYTRKIIDAIHSGSLLKANYKKTEIFGFEIPTEIEGIPSEILDPVNSWSDKKAHKDTLVKLGGLFKKNFEVFANHKIGVDGKLTEEILAAGPIF
B2: AthPEPCK1 Δ19 truncated mutant (enzyme, Arabidopsis thaliana, UniProt Q9T074 20-671, looked up)
chain: GPVMPKITTGAAKRGSGVCHDDSGPTVNATTIDELHSLQKKRSAPTTPINQNAAAAFAAVSEEERQKIQLQSISASLASLTRESGPKVVRGDPAEKKTDGSTTPAYAHGQHHSIFSPATGAVSDSSLKFTHVLYNLSPAELYEQAIKYEKGSFITSNGALATLSGAKTGRAPRDKRVVRDATTEDELWWGKGSPNIEMDEHTFMVNRERAVDYLNSLEKVFVNDQYLNWDPENRIKVRIVSARAYHSLFMHNMCIRPTQEELESFGTPDFTIYNAGQFPCNRYTHYMTSSTSVDLNLARREMVILGTQYAGEMKKGLFSVMHYLMPKRRILSLHSGCNMGKDGDVALFFGLSGTGKTTLSTDHNRYLIGDDEHCWTETGVSNIEGGCYAKCVDLSREKEPDIWNAIKFGTVLENVVFDEHTREVDYSDKSVTENTRAAYPIEFIPNAKIPCVGPHPTNVILLACDAFGVLPPVSKLNLAQTMYHFISGYTALVAGTEDGIKEPTATFSACFGAAFIMLHPTKYAAMLAEKMKSQGATGWLVNTGWSGGSYGVGNRIKLAYTRKIIDAIHSGSLLKANYKKTEIFGFEIPTEIEGIPSEILDPVNSWSDKKAHKDTLVKLGGLFKKNFEVFANHKIGVDGKLTEEILAAGPIF

Molecular target: the molecule itself
Assay: SEC

Protein	stoichiometry N
B1	6
B2	6
